From patent US20210380707A1 (published 2021)

Columns and labels:
human CD70 [1] = target: T1, human CD70 (human, UniProt P32970 1-193); experiment: IHC Leica BOND, ER2, FFPE ACHN cells, 8 µg/mL
T1 construct: Endogenous CD70 in FFPE cells and tissue sections, detected by IHC; also called CD70 antigen
T1 sequence: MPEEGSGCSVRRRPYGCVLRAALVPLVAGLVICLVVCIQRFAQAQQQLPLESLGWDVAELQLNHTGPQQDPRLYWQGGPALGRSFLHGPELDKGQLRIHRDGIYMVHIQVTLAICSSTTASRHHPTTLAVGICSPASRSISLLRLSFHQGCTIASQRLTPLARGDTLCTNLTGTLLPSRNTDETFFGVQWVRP
Procedure: (§1) The following IHC evaluation was performed using a Leica BOND™ RX autostainer and BOND™ Polymer Refine Detection kit. These antibodies were tested at 5 μg/mL or 8 μg/mL concentration on a panel of CD70 positive cell line controls and a renal clear cell carcinoma tissue microarray (RCC TMA). All incubation steps were performed at room temperature with wash cycles in between each step unless otherwise stated. Briefly, pretreatment of FFPE slides was performed using the Bake and Dewax function. It was followed by a HIER step with Epitope Retrieval solution 2 (ER2) for 20 minutes at 100° C. Next, tissues were incubated with primary antibody for 60 minutes, followed by incubation with post primary and then polymer reagents for 15 minutes each. The antibody-antigen binding was visualized by brown DAB Refine stain for 10 minutes and counter-stained blue with Hematoxylin for 5 minutes. […] Upon completion of IHC staining experiment, stained tissues were scan using a Pannoramic MIDI II brightfield whole slide scanner and staining was visualized using CaseViewer software.

human CD70 [2] = target: T1, human CD70; experiment: IHC Leica BOND, ER2, FFPE ACHN cells, 5 µg/mL
Procedure: as §1

human CD70 [3] = target: T1, human CD70; experiment: IHC Leica BOND, ER2, FFPE HH cells, 5 µg/mL
Procedure: as §1

B1: 11G12B6 (antibody, V domains shown)
VH: QVTLKESGPGILKPSQTLSLTCSFSGFSLSTSGLAVGWIRQPSGKGLEWLSHIWWNDDKYYNPSLKNQLTISKDTSRNQVFLKIISVDTADTATYYCSAYFGGKNYWGQGTALTVSS
VL: DIVMTQSPSSLTVTAGEKVTMSCKSSQSLLNSGNQKNYLTWYQQKPGQPPKLLVYWASTRESGVPDRFTGSGSGTDFTLTISTVQAEDLAVYYCQNDYSYPLTFGAGTKLELK
notes: Mouse hybridoma antibody, IgG1, Kappa; Only variable domains are printed
B1: binds (human CD70 [1]).

B2: 4E6G9 (antibody, V domains shown)
VH: QIQLVQSGPELKKAGETVKISCKASGYTFAAYSMHWVKQAPGKGLKWMGWINTETGEPTYADDFKGRFAFSLETSASTAYLQINNLKNEDTATYFCTRDDYDGGRFSYWYFAVWGAGTTVTVSS
VL: DIQMTQSPSSLSASLGGKVTITCKASQDINKYIAWYQHRPGKGPRLLIRYTSTLQPGIPSRFSGSGSGRDYSFSINNLEPEDIATYYCLQYDNLLTFGGGTKLEIK
notes: Mouse IgG1, Kappa; Only variable domains are printed; also called 4E6G9 antibody (Ms IgG1, kappa); recombinant antibody 4E6G9
B2: binds (human CD70 [2]).

B3: 16D7C8 (antibody, IgG3, V domains shown)
VH: QVQLQQSGPELVKPGASVRISCKASGYTFTSFYIHWVKQRPGQGLEWIGWISPINININYNEKFKGKATLTADKSSSTVYMQLSSLTSEDSAVYFCEGTSENFDVWGAGTTVTVSS
VL: DVLMTQIPLSLPVSLGDQASISCRSTQNIVHSNGNTYLEWYLQKPGQSPKLLIYKVSNRFSGVPDRFRGSGSGTEFTLKITRVEADDLGVYYCFQGSHVPFTFGAGTKLELK
notes: Mouse hybridoma antibody, IgG3, Kappa; Only variable domains are printed
B3: binds (human CD70 [2]).

B4: 18F8A8 (antibody, IgG1, V domains shown)
VH: QVTLKESGPGILQPSQTLSLTCSFSGFSLSTSNMGVAWIRQPLGKGLEWLLYILWNDTKYYNPALKSRLSISKDTYNNQVFLKIVNVDTADTATYYCARIRRDYALDYWGQGTSVTVSS
VL: DIVMSQSPSSLAVSVGEKVTMNCKSSQSLLYSNNQKNYLAWYQQKPGQSPKLLIYWASTRESGVPDRFTGSGSGTDFTLTISSVKAEDLAVYYCQQYYIYPLAFGGGTKLEIK
notes: as for B1
B4: binds (human CD70 [2]).

B5: 19H7E4 (antibody, IgG1, V domains shown)
VH: QVTLKESGPGILQPSQTLSLTCSFSGFSLSTSNVGVGWIRQPSGKGLEWLLHILWNDGKYYNPALKSRLTISKDTSTNQVFLKIADVDTADSATYYCARLRRDYGMDYWGQGTSVTVSS
VL: DIVMSQSPSSLAVSVGEKVTMSCKSSQSLLYSYNQKNYLAWYQQKPGQSPKLLIYWASTRESGVPDRFTGSGSGTDFTLTISSVKAEDLAVYYCQQYYTYPYAFGGGTKLEIK
notes: as for B1
B5: binds (human CD70 [2]).

B6: 3H11D12E7 (antibody, V domains shown)
VH: QIQLVQSGPELKKPGETVKISCKASGYTFTDYSMHWVKQAPGKGLKWMGWINTETGEPTYADDFKGRFAFSLETSASTAYLQINNLKNDDTATYFCARSFYRYDWYFDVWGAGTTVTVSS
VL: QIVLTQSPAIMSASPGEKVTITCSASSSVSFMHWFQQKPGTSPKLWIYSTSNLASGVPARFSGSGSGTSYSLTISRMEAEDAATYYCQQRTSFPPTFGGGTNLEIK
notes: Mouse IgG1, Kappa; Only variable domains are printed; also called recombinantly expressed 3H11D12E7
B6: binds (human CD70 [3]).
